This is an account of results in patent US20220363770A1 (Amgen, published 2022).

In assay [1] the target is T1, human PAC1 receptor (human, UniProt P41586 24-468).
T1 sequence: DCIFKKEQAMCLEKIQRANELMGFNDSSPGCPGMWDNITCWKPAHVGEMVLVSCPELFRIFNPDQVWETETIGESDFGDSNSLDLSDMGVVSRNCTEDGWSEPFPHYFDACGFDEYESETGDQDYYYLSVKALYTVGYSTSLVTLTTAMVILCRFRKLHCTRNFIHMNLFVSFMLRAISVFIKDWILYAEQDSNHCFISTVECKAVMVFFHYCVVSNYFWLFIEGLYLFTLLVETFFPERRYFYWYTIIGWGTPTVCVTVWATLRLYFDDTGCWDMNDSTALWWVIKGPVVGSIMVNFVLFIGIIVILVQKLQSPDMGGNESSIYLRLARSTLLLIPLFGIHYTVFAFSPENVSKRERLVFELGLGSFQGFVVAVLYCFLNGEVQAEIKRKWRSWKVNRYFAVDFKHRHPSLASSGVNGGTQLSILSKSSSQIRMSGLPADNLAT
In words: cell-based or functional assay.

In assay [2] the target is human CGRP receptor (human, UniProt Q16602 23-461; O60894 27-148). In words: cell-based or functional assay.
Sequence of human CGRP receptor (Q16602 23-461 limits assumed, chain 1 of 2): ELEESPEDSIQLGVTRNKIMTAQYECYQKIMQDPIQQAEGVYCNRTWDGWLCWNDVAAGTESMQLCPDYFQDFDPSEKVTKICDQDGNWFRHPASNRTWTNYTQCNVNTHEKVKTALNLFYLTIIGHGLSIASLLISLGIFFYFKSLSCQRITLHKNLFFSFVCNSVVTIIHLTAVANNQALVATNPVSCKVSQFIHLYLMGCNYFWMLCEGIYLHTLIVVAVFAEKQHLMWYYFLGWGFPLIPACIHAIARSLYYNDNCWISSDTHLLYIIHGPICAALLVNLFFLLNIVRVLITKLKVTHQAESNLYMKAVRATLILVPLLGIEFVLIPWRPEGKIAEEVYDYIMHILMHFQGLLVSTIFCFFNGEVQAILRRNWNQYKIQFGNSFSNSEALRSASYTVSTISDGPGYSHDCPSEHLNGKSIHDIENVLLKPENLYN
Sequence of human CGRP receptor (O60894 27-148 limits assumed, chain 2 of 2): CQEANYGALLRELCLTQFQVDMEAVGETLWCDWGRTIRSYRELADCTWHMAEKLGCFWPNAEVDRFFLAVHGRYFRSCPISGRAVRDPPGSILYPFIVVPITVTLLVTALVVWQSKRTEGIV

B1: iPS:454831 (bispecific antibody, human IgG1, kappa, lambda, N297G)
light 1: QSVLTQPPSVSAAPGQKVTISCSGSRSNIGIKAVSWYQQLPGTAPKLLIYDNNKRPSGIPDRFSGSKSGTSATLGITGLQTGDEADYYCGTWDSRLSAVVFGGGTKLTVLGQPKAAPSVTLFPPSSEELQANKATLVCLISDFYPGAVTVAWKADSSPVKAGVETTTPSKQSNNKYAAKSYLSLTPEQWKSHRSYSCQVTHEGSTVEKTVAPTECS
heavy 1: QVQLVESGGGVVQPGRSLRLSCAASGFTFSSFGMHWVRQAPGKGLEWVAVISFDGSIKYSVDSVKGRFTISRDNSKNTLFLQMNSLRAEDTAVYYCARDRLNYYESSGYYHYKYYGMAVWGQGTTVTVSSASTKGPSVFPLAPSSKSTSGGTAALGCLVKDYFPEPVTVSWNSGALTSGVHTFPAVLQSSGLYSLESVVTVPSSSLGTQTYICNVNHKPSNTKVDKKVEPKSCDKTHTCPPCPAPELLGGPSVFLFPPKPKDTLMISRTPEVTCVVVDVSHEDPEVKFNWYVDGVEVHNAKTKPCEEQYGSTYRCVSVLTVLHQDWLNGKEYKCKVSNKALPAPIEKTISKAKGQPREPQVYTLPPSRKKMTKNQVSLTCLVKGFYPSDIAVEWESNGQPENNYKTTPPVLKSDGSFFLYSKLTVDKSRWQQGNVFSCSVMHEALHNHYTQKSLSLSPGK
light 2: EIVLTQSPATLSLSPGERATLSCRASQSVGRSLHWYQQKPGQAPRLLIKYASQSLSGIPARFSGSGSGTDFTLTISSLEPEDFAVYYCHQSSRLPFTFGPGTKVDIKRTVAAPSVFIFPPSDEQLKSGTASVVCLLNNFYPREAKVQWKVDNALQSGNSQESVTEQDSKDSTYSLESTLTLSKADYEKHKVYACEVTHQGLSSPVTKSFNRGEC
heavy 2: not shown
Turning to B1, in assay [1], the “Fold-improvement over 29G4v22 Ab” value is 7.6 fold and 900 pM corresponded to half-maximal inhibition (IC50). In assay [2], the “Fold-improvement over 4E4 Ab” value came to 1.7 fold and the “IC50” value turned out to be 380 pM.

B2: iPS:454839 (bispecific antibody, human IgG1, kappa, lambda, N297G)
light 1: QSVLTQPPSVSAAPGQKVTISCSGSRSNIGIKAVSWYQQLPGTAPKLLIYDNNKRPSGIPDRFSGSKSGTSATLGITGLQTGDEADYYCGTWDSRLSAVVFGGGTKLTVLGQPKAAPSVTLFPPSSEELQANKATLVCLISDFYPGAVTVAWKADSSPVKAGVETTTPSKQSNNKYAAKSYLSLTPEQWKSHRSYSCQVTHEGSTVEKTVAPTECS
heavy 1: QVQLVESGGGVVQPGRSLRLSCAASGFTFSSFGMHWVRQAPGKGLEWVAVISFDGSIKYSVDSVKGRFTISRDNSKNTLFLQMNSLRAEDTAVYYCARDRLNYYESSGYYHYKYYGMAVWGQGTTVTVSSASTKGPSVFPLAPSSKSTSGGTAALGCLVKDYFPEPVTVSWNSGALTSGVHTFPAVLQSSGLYSLESVVTVPSSSLGTQTYICNVNHKPSNTKVDKKVEPKSCDKTHTCPPCPAPELLGGPSVFLFPPKPKDTLMISRTPEVTCVVVDVSHEDPEVKFNWYVDGVEVHNAKTKPCEEQYGSTYRCVSVLTVLHQDWLNGKEYKCKVSNKALPAPIEKTISKAKGQPREPQVYTLPPSRKKMTKNQVSLTCLVKGFYPSDIAVEWESNGQPENNYKTTPPVLKSDGSFFLYSKLTVDKSRWQQGNVFSCSVMHEALHNHYTQKSLSLSPGK
light 2: EIVLTQSPATLSLSPGERATLSCRASKSVGWSLHWYQQKPGQAPRLLIKYASQSLSGIPARFSGSGSGTDFTLTISSLEPEDFAVYYCHQSSRLPFTFGPGTKVDIKRTVAAPSVFIFPPSDEQLKSGTASVVCLLNNFYPREAKVQWKVDNALQSGNSQESVTEQDSKDSTYSLESTLTLSKADYEKHKVYACEVTHQGLSSPVTKSFNRGEC
heavy 2: not shown
Consider B2, for which, in assay [1], the “Fold-improvement over 29G4v22 Ab” value turned out to be 8.6 fold and the “IC50” value stood at 790 pM. In assay [2], the “Fold-improvement over 4E4 Ab” value is 1.8 fold and the “IC50” value is 360 pM.

B3: iPS:454837 (bispecific antibody, human IgG1, kappa, lambda, N297G)
light 1: QSVLTQPPSVSAAPGQKVTISCSGSRSNIGIKAVSWYQQLPGTAPKLLIYDNNKRPSGIPDRFSGSKSGTSATLGITGLQTGDEADYYCGTWDSRLSAVVFGGGTKLTVLGQPKAAPSVTLFPPSSEELQANKATLVCLISDFYPGAVTVAWKADSSPVKAGVETTTPSKQSNNKYAAKSYLSLTPEQWKSHRSYSCQVTHEGSTVEKTVAPTECS
heavy 1: QVQLVESGGGVVQPGRSLRLSCAASGFTFSSFGMHWVRQAPGKGLEWVAVISFDGSIKYSVDSVKGRFTISRDNSKNTLFLQMNSLRAEDTAVYYCARDRLNYYESSGYYHYKYYGMAVWGQGTTVTVSSASTKGPSVFPLAPSSKSTSGGTAALGCLVKDYFPEPVTVSWNSGALTSGVHTFPAVLQSSGLYSLESVVTVPSSSLGTQTYICNVNHKPSNTKVDKKVEPKSCDKTHTCPPCPAPELLGGPSVFLFPPKPKDTLMISRTPEVTCVVVDVSHEDPEVKFNWYVDGVEVHNAKTKPCEEQYGSTYRCVSVLTVLHQDWLNGKEYKCKVSNKALPAPIEKTISKAKGQPREPQVYTLPPSRKKMTKNQVSLTCLVKGFYPSDIAVEWESNGQPENNYKTTPPVLKSDGSFFLYSKLTVDKSRWQQGNVFSCSVMHEALHNHYTQKSLSLSPGK
light 2: EIVLTQSPATLSLSPGERATLSCRASKAVGWSLHWYQQKPGQAPRLLIKYASQSLSGIPARFSGSGSGTDFTLTISSLEPEDFAVYYCHQSSRLPFTFGPGTKVDIKRTVAAPSVFIFPPSDEQLKSGTASVVCLLNNFYPREAKVQWKVDNALQSGNSQESVTEQDSKDSTYSLESTLTLSKADYEKHKVYACEVTHQGLSSPVTKSFNRGEC
heavy 2: not shown
Take B3: in assay [1], the “Fold-improvement over 29G4v22 Ab” value worked out at 6.8 fold and the “IC50” value amounted to 1010 pM. Moreover, in assay [2], the “Fold-improvement over 4E4 Ab” value is 1.4 fold and it took 450 pM to reach half-maximal inhibition (IC50).

B4: iPS:454835 (bispecific antibody, human IgG1, kappa, lambda, N297G)
light 1: QSVLTQPPSVSAAPGQKVTISCSGSRSNIGIKAVSWYQQLPGTAPKLLIYDNNKRPSGIPDRFSGSKSGTSATLGITGLQTGDEADYYCGTWDSRLSAVVFGGGTKLTVLGQPKAAPSVTLFPPSSEELQANKATLVCLISDFYPGAVTVAWKADSSPVKAGVETTTPSKQSNNKYAAKSYLSLTPEQWKSHRSYSCQVTHEGSTVEKTVAPTECS
heavy 1: QVQLVESGGGVVQPGRSLRLSCAASGFTFSSFGMHWVRQAPGKGLEWVAVISFDGSIKYSVDSVKGRFTISRDNSKNTLFLQMNSLRAEDTAVYYCARDRLNYYESSGYYHYKYYGMAVWGQGTTVTVSSASTKGPSVFPLAPSSKSTSGGTAALGCLVKDYFPEPVTVSWNSGALTSGVHTFPAVLQSSGLYSLESVVTVPSSSLGTQTYICNVNHKPSNTKVDKKVEPKSCDKTHTCPPCPAPELLGGPSVFLFPPKPKDTLMISRTPEVTCVVVDVSHEDPEVKFNWYVDGVEVHNAKTKPCEEQYGSTYRCVSVLTVLHQDWLNGKEYKCKVSNKALPAPIEKTISKAKGQPREPQVYTLPPSRKKMTKNQVSLTCLVKGFYPSDIAVEWESNGQPENNYKTTPPVLKSDGSFFLYSKLTVDKSRWQQGNVFSCSVMHEALHNHYTQKSLSLSPGK
light 2: EIVLTQSPATLSLSPGERATLSCRASKSVGRSLHWYQQKPGQAPRLLIKYASQSLSGIPARFSGSGSGTDFTLTISSLEPEDFAVYYCHQSSRLPFTFGPGTKVDIKRTVAAPSVFIFPPSDEQLKSGTASVVCLLNNFYPREAKVQWKVDNALQSGNSQESVTEQDSKDSTYSLESTLTLSKADYEKHKVYACEVTHQGLSSPVTKSFNRGEC
heavy 2: not shown
Regarding B4, in assay [1], the “Fold-improvement over 29G4v22 Ab” value was 9.3 fold and 730 pM corresponded to half-maximal inhibition (IC50). For the same molecule, in assay [2], the “Fold-improvement over 4E4 Ab” value is 2.2 fold and the “IC50” value was determined as 280 pM.

B5: iPS:454833 (bispecific antibody, human IgG1, kappa, lambda, N297G)
light 1: QSVLTQPPSVSAAPGQKVTISCSGSRSNIGIKAVSWYQQLPGTAPKLLIYDNNKRPSGIPDRFSGSKSGTSATLGITGLQTGDEADYYCGTWDSRLSAVVFGGGTKLTVLGQPKAAPSVTLFPPSSEELQANKATLVCLISDFYPGAVTVAWKADSSPVKAGVETTTPSKQSNNKYAAKSYLSLTPEQWKSHRSYSCQVTHEGSTVEKTVAPTECS
heavy 1: QVQLVESGGGVVQPGRSLRLSCAASGFTFSSFGMHWVRQAPGKGLEWVAVISFDGSIKYSVDSVKGRFTISRDNSKNTLFLQMNSLRAEDTAVYYCARDRLNYYESSGYYHYKYYGMAVWGQGTTVTVSSASTKGPSVFPLAPSSKSTSGGTAALGCLVKDYFPEPVTVSWNSGALTSGVHTFPAVLQSSGLYSLESVVTVPSSSLGTQTYICNVNHKPSNTKVDKKVEPKSCDKTHTCPPCPAPELLGGPSVFLFPPKPKDTLMISRTPEVTCVVVDVSHEDPEVKFNWYVDGVEVHNAKTKPCEEQYGSTYRCVSVLTVLHQDWLNGKEYKCKVSNKALPAPIEKTISKAKGQPREPQVYTLPPSRKKMTKNQVSLTCLVKGFYPSDIAVEWESNGQPENNYKTTPPVLKSDGSFFLYSKLTVDKSRWQQGNVFSCSVMHEALHNHYTQKSLSLSPGK
light 2: EIVLTQSPATLSLSPGERATLSCRASKSVGRSLHWYQQKPGQAPRLLIKYASQSLSGIPARFSGSGSGTDFTLTISSLEPEDFAVYYCHQSSRLPFTFGPGTKVDIKRTVAAPSVFIFPPSDEQLKSGTASVVCLLNNFYPREAKVQWKVDNALQSGNSQESVTEQDSKDSTYSLESTLTLSKADYEKHKVYACEVTHQGLSSPVTKSFNRGEC
heavy 2: not shown
In the case of B5, in assay [1], the “Fold-improvement over 29G4v22 Ab” value was found to be 9 fold and the “IC50” value was 760 pM. Moreover, in assay [2], the “Fold-improvement over 4E4 Ab” value was determined as 2.6 fold and the “IC50” value worked out at 240 pM.
